Ends that are not written are not given here. * marks the point of attachment. Biotin = O=C1N[C@H]2[C@H](CS[C@H]2CCCCC(=O)*)N1
What was measured:
Assay in all cases: A/G assays
[1] = target: T1, GST-TAX-IP43 PDZ domain fusion protein (human, UniProt Q13884 109-180)
T1 construct: also called TAX43; not shown: glutathione S-transferase encoded by vector pGEX-3X (Pharmacia)
T1 sequence: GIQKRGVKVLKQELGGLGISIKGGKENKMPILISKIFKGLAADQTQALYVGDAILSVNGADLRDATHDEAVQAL

[2] = target: T2, GST-TAX-IP2 PDZ domain fusion protein (human, UniProt O14908 129-216)
T2 construct: also called TAX-1P2; TAX2; not shown: glutathione S-transferase encoded by vector pGEX-3X (Pharmacia)
T2 chain: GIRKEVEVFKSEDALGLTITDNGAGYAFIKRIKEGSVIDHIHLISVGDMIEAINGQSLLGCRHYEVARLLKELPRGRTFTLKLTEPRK

[3] = target: T3, GST-PTN-4 PDZ domain fusion protein (Homo sapiens (Human), UniProt P29074 517-605)
T3 construct: also called protein-tyrosine phosphatase meg1; not shown: glutathione S-transferase encoded by vector pGEX-3X (Pharmacia)
T3 sequence: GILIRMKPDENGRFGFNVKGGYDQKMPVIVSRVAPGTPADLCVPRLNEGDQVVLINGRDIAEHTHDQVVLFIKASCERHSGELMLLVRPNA

[4] = target: T4, GST-MPP1 PDZ domain fusion protein (Homo sapiens (Human), UniProt Q00013 67-152)
T4 construct: also called p55; 55 Kd erythrocyte membrane protein; not shown: glutathione S-transferase encoded by vector pGEX-3X (Pharmacia)
T4 sequence: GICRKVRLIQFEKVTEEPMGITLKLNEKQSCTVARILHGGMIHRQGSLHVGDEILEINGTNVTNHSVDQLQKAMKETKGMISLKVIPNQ

[5] = target: T5, GST-AF6 PDZ domain fusion protein (Homo sapiens (Human), UniProt P55196 1001-1093)
T5 construct: also called af-6 protein; not shown: glutathione S-transferase encoded by vector pGEX-3X (Pharmacia)
T5 sequence: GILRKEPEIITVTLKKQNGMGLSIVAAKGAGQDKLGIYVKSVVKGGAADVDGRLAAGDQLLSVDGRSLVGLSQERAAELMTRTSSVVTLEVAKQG

[6] = target: T6, GST-RGS12 PDZ domain fusion protein (human, UniProt O14924 17-85)
T6 construct: also called human regulator of G-protein signalling 12; not shown: glutathione S-transferase encoded by vector pGEX-3X (Pharmacia)
T6 sequence: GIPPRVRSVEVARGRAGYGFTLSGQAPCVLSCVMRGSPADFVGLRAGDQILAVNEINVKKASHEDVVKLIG

[7] = target: T7, GST-TIAM1 PDZ domain fusion protein (Homo sapiens (Human), UniProt Q13009 845-931)
T7 construct: also called TLAM1; T-lymphoma invasion and metastasis inducing protein 1; not shown: glutathione S-transferase encoded by vector pGEX-3X (Pharmacia)

[8] = target: T8, GST-DVL1 PDZ domain fusion protein (human, UniProt O14640 247-339)
T8 construct: also called human dishevelled segment polarity protein homolog; not shown: glutathione S-transferase encoded by vector pGEX-3X (Pharmacia)
T8 sequence: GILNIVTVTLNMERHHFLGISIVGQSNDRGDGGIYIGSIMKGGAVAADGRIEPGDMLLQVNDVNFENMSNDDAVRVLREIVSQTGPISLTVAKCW

[9] = target: T9, GST-KIAA0303 PDZ domain fusion protein (Homo sapiens (Human), UniProt O15021 1138-1228)
T9 construct: also called K303; not shown: glutathione S-transferase encoded by vector pGEX-3X (Pharmacia)
T9 sequence: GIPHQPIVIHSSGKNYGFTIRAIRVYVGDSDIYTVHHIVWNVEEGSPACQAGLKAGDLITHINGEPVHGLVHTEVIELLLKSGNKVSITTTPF

[10] = target: T10, KIAA0807 (PDZ domain)-GST fusion protein (human, UniProt Q6P0Q8 1104-1192)
T10 construct: also called K807; KIAA807; not shown: glutathione S-transferase encoded by vector pGEX-3X (Pharmacia)
T10 sequence: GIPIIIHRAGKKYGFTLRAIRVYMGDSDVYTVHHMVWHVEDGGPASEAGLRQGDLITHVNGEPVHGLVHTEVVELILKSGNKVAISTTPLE

[11] = target: T11, X11β PDZ-GST fusion protein (Rattus norvegicus (Rat), UniProt O35431 560-745)
T11 construct: Order of GST and PDZ part and limits not seen in the excerpts
T11 chain: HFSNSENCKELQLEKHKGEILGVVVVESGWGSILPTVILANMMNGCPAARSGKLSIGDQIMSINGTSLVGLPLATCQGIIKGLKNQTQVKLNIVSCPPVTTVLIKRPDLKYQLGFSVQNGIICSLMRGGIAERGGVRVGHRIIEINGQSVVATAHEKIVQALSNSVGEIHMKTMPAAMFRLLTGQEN

[12] = target: T12, TAX-IP2L PDZ-GST fusion protein (Homo sapiens (Human), UniProt Q8TF64 107-197)
T12 construct: Order of GST and PDZ part and limits not seen in the excerpts
T12 sequence: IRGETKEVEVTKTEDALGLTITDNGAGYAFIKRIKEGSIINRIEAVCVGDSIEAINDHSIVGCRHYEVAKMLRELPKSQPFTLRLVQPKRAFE

[13] = target: T13, TAX-IP33 PDZ-GST fusion protein (Homo sapiens (Human), UniProt O14910 103-193)
T13 construct: Order of GST and PDZ part and limits not seen in the excerpts
T13 sequence: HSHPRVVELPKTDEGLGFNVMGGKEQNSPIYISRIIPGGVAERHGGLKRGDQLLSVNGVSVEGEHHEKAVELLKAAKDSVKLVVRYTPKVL

[14] = target: T14, K316 PDZ-GST fusion protein (Homo sapiens (Human), UniProt Q14CM0 72-159)
T14 construct: Order of GST and PDZ part and limits not seen in the excerpts

[15] = target: T15, SP short PDZ-GST fusion protein (Homo sapiens (Human), UniProt O43464 350-435)
T15 construct: The label SP short is not explained in the excerpts
T15 sequence: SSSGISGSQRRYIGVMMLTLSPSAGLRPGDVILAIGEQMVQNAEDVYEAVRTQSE

[16] = target: T16, GEF PDZ-GST fusion protein (Homo sapiens (Human), UniProt Q8TEU7 293-400)
T16 construct: The label GEF is not explained in the excerpts
T16 sequence: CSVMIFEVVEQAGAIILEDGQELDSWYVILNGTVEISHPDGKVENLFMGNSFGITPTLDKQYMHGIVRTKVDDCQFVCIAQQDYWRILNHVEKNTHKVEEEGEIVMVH

Measured: binding result

T7 sequence (Q13009 other isoform, or with tags, fused parts or gaps): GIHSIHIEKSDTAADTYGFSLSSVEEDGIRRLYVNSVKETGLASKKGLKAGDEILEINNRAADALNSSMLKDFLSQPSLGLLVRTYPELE
T14 sequence (Q14CM0 72-159 limits assumed): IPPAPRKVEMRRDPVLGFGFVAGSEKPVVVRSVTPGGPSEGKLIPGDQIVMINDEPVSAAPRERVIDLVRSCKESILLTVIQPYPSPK

Biotin-PYGTAMEKAQLKPPATSDA (also called CD49E (alpha-4)) [CD49E C-terminal peptide AA11L, biotinylated]
no binding: all assays above

Biotin-VTSPNKHLGLVTPHKTELV [CD83 C-terminal peptide AA47L, biotinylated]
no binding: all assays above

Biotin-KDITSDSENSNFRNEIQSLV (also called CD95 (Apo-1/Fas); AAI3L) [CD95 (Fas) C-terminal peptide AA13L, biotinylated]
no binding: all assays above

B1: CD138 C-terminal peptide AA18L, biotinylated (peptide)
peptide: Biotin-PKQANGGAYQKPTKQEEFYA
notes: also called CD138 (syndecan-1); CD138 (syndecan)
not listed: [7]
no binding: all other assays above

From patent US20050037969A1 (ARBOR VITA, published 2005)
